Where no end group is shown, it is not given here.
Key:
Type in all cases: physicochemical
[1] = pH and appearance of 2.5% peptide solutions after adding 0.1 N NaOH
Protocol: To adjust the pH level of the peptide solutions by way of example, 0.1 N NaOH was added to 2 mL of 2.5% peptide solutions and their pH and appearance were measured.

[2] = Appearance of 1.5% peptide solutions with various salts at room temperature; details: for Appearance: room temperature
Protocol: The effect of salt ionic strength level on the properties of peptide solutions was evaluated to identify optimized salt ionic strength levels for the peptides as described herein. Increasing the salt ionic strength level of PuraMatrix® (SEQ ID NO:1) and other peptides may generally improve its function and mechanical strength for various clinical applications. To adjust the salt ionic strength of the peptide solutions by way of example, various salt buffer solutions including NaCl, KCl, MgCl2, CaCl2 and DPBS (10×) were added to 2 mL of 1.5% peptide solutions.

[3] = Rheological properties of pH adjusted peptide solutions; details: pH adjusted vs not adjusted; KLD12 1%, IEIK13 1%, PuraMatrix 1% and 2.5%
Protocol: Based on the visual observation of the effect of pH level on the properties of the peptide solutions, the effect on the rheological properties of the peptide solutions after adjusting their pH level to 3.4 (PuraMatrix® (SEQ ID NO:1) and KLD12 (SEQ ID NO:3)) or 3.7 (IEIK13 (SEQ ID NO:2)) was evaluated. If the pH levels of peptide solutions are higher than 3.5 (PuraMatrix® (SEQ ID NO:1) and KLD12 (SEQ ID NO:3)) or 3.7 (IEIK13 (SEQ ID NO:2)), the peptide solution began phase separation becoming cloudy. The rheological properties of PuraMatrix® (SEQ ID NO:1), KLD12 (SEQ ID NO:3) and IEIK13 (SEQ ID NO:2) solutions were higher at pH 3.4. The results are shown in FIG. 2 for KLD12 (SEQ ID NO:3) 1%, FIG. 3 for IEIK13 (SEQ ID NO:2) 1%, and FIGS. 4-5 for PuraMatrix® (SEQ ID NO:1) 1% and 2.5%, respectively. Stress sweep tests were performed at 10 rad/s. Frequency sweep tests were performed at 1 Pa.
Based on the results of the effect on the rheological properties of the peptide solutions after adjusting their pH level to 3.4 (PuraMatrix® (SEQ ID NO:1) and KLD12 (SEQ ID NO:3)) or 3.7 (IEIK13 (SEQ ID NO:2)), the effect on the rheological properties of the peptide solutions at various pH levels was evaluated. […] The rheological properties of peptides were evaluated at various concentrations using a rheometer (DHR-1, TA Instruments) with 20 mm plates. The results are shown in FIG. 6A for PuraMatrix® (SEQ ID NO:1) 2.5% solution and FIG. 6B for IEIK13 (SEQ ID NO:2) 1.5% solution, respectively. Frequency sweep tests were performed from 1 rad/sec to 10 rad/sec at 1 Pa and the storage modulus at 1 rad/sec was selected for data.

KLDLKLDLKLDL [KLD12]
Clear, thick and stiffer gel: Appearance ([1]; 0.1N NaOH 150 μL/mL added in 2.5% solution, conc. 2.17%) | Appearance ([1]; 0.1N NaOH 200 μL/mL added in 2.5% solution, conc. 2.08%) | Appearance ([1]; 0.1N NaOH 225 μL/mL added in 2.5% solution, conc. 2.04%)
Slightly cloudy, thick, stiffer gel: Appearance ([2]; CaCl2 0.133 M, ionic strength 0.4 M, conc. 1.43%) | Appearance ([2]; KCl 0.3 M, ionic strength 0.3 M, conc. 1.35%) | Appearance ([2]; MgCl2 0.133 M, ionic strength 0.4 M, conc. 1.43%) | Appearance ([2]; NaCl 0.3 M, ionic strength 0.3 M, conc. 1.35%)
Clear, thick gel: Appearance ([2]; CaCl2 0 M, ionic strength 0 M, conc. 1.5%) | Appearance ([2]; KCl 0 M, ionic strength 0 M, conc. 1.5%) | Appearance ([2]; MgCl2 0 M, ionic strength 0 M, conc. 1.5%) | Appearance ([2]; NaCl 0 M, ionic strength 0 M, conc. 1.5%)
Cloudy, phase-separated: Appearance ([1]; 0.1N NaOH 350 μL/mL added in 2.5% solution, conc. 1.85%) | Appearance ([1]; peptide solution pH 7.0, NaOH volume and conc. not given) | Appearance ([2]; CaCl2 0.167 M, ionic strength 0.5 M, conc. 1.42%) | Appearance ([2]; KCl 0.4 M, ionic strength 0.4 M, conc. 1.3%) | Appearance ([2]; MgCl2 0.167 M, ionic strength 0.5 M, conc. 1.42%) | Appearance ([2]; NaCl 0.4 M, ionic strength 0.4 M, conc. 1.3%)
Slightly cloudy, brittle gel: Appearance ([1]; 0.1N NaOH 250 μL/mL added in 2.5% solution, conc. 2.0%) | Appearance ([2]; CaCl2 0.15 M, ionic strength 0.45 M, conc. 1.43%) | Appearance ([2]; KCl 0.35 M, ionic strength 0.35 M, conc. 1.32%) | Appearance ([2]; MgCl2 0.15 M, ionic strength 0.45 M, conc. 1.43%) | Appearance ([2]; NaCl 0.35 M, ionic strength 0.35 M, conc. 1.32%)
Clear, thick, stiffer gel: Appearance ([2]; CaCl2 0.05 M, ionic strength 0.15 M, conc. 1.48%) | Appearance ([2]; CaCl2 0.067 M, ionic strength 0.2 M, conc. 1.47%) | Appearance ([2]; CaCl2 0.083 M, ionic strength 0.25 M, conc. 1.46%) | Appearance ([2]; CaCl2 0.1 M, ionic strength 0.3 M, conc. 1.45%) | Appearance ([2]; CaCl2 0.117 M, ionic strength 0.35 M, conc. 1.44%) | Appearance ([2]; KCl 0.05 M, ionic strength 0.5 M, conc. 1.48%) | Appearance ([2]; KCl 0.1 M, ionic strength 0.1 M, conc. 1.45%) | Appearance ([2]; KCl 0.15 M, ionic strength 0.15 M, conc. 1.43%) | Appearance ([2]; KCl 0.2 M, ionic strength 0.2 M, conc. 1.4%) | Appearance ([2]; KCl 0.25 M, ionic strength 0.25 M, conc. 1.38%) | Appearance ([2]; MgCl2 0.05 M, ionic strength 0.15 M, conc. 1.48%) | Appearance ([2]; MgCl2 0.067 M, ionic strength 0.2 M, conc. 1.47%) | Appearance ([2]; MgCl2 0.083 M, ionic strength 0.25 M, conc. 1.46%) | Appearance ([2]; MgCl2 0.1 M, ionic strength 0.3 M, conc. 1.45%) | Appearance ([2]; MgCl2 0.117 M, ionic strength 0.35 M, conc. 1.44%) | Appearance ([2]; NaCl 0.05 M, ionic strength 0.5 M, conc. 1.48%) | Appearance ([2]; NaCl 0.1 M, ionic strength 0.1 M, conc. 1.45%) | Appearance ([2]; NaCl 0.15 M, ionic strength 0.15 M, conc. 1.43%) | Appearance ([2]; NaCl 0.2 M, ionic strength 0.2 M, conc. 1.4%) | Appearance ([2]; NaCl 0.25 M, ionic strength 0.25 M, conc. 1.38%)
higher: rheological properties of solutions at pH 3.4 [3]
0.3˜0.4 M: critical salt ionic strengths at which peptides become cloudy [2]
0.25˜0.35 M: salt ionic strength increase that did not change the clear color, while apparent stiffness increased ([2]; depending on different salts, 1.5% peptide solutions)
7.0: Peptide solution pH ([1]; NaOH volume and conc. not given)
